A short description of this series: yeast display, Sf9 membrane polyspecificity reagent, FACS + sequencing; frameworks hold sequencing errors. The essentials:
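Genes from sorted yeast were amplified by colony PCR, read by MiSeq 2 × 250 sequencing and filtered on CDR length. These cells carried a synthetic nanobody library in Saccharomyces cerevisiae BJ5465 and were sorted by FACS into low and high (top ~1%) gates on anti-HA and streptavidin fluorescence. Polyreactivity is labelled according to the gate of origin.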
Regarding “QVQLVESGGGLVQAGGSLRLSCAASGSARYDMGWYRQPNGKERELVAAISRRGGSTFYADSVKGRFTISRDNAKNTVYLQMNSLKPEDTAVYYCAADGRISYDYWGQGTQVTVSS”, the “polyreactivity (PSR sort gate)” value is “low polyreactivity”.

For “QVQLVESGGGLVQAGGSLRLSCAASGSASRGNAMGWYRQAPGKERELVATISQSGGNTFYADSVKGRFTISRDNAKNSVYLQMNSLKPEDTAVYYCAAGRYWFGWYDYWGQGTQVTVSS”, the “polyreactivity (PSR sort gate)” value is reported as “high polyreactivity”.

For “QVQLVESGGGLVQAGGSLRLSCAASGSIAMGWYRQAPGKERELVATISSSGGSTYYADSVKGRFTISRDNAKNTVYLQMNSLKPEDTAVYYCNTQAVYGGGEGGYDYWGQGTQVTVSS”, the “polyreactivity (PSR sort gate)” value was “low polyreactivity”.

Turning to “QVQLVESGGGLVQAGGSLRLSCAASGSICAFYGMRWYRQAPGKERELVAAITRSGGSTYYADSVKGRFTISRDNAKNTVYLQMNSLKAEDTAVSYCAKRPHHGSTKYNYWGQGTQVTVSS”, the “polyreactivity (PSR sort gate)” value is recorded as “low polyreactivity”.

For “QVQLVESGGGLVQAGGSLRLSCAASGSICYDDMGWYSQAPGKERELVAAITWSGGSTYYADSVKGRFTISRDNAKNTVYLQMNSLKPEDTAVYYCAAIFGYGSTWWRWGKDDYWGQGTQVTVSS”, the “polyreactivity (PSR sort gate)” value is on record as “high polyreactivity”.

Turning to “QVQLVESGGGLVQAGGSLRLSCAASGSIDGYAMGWYRQAPGKERELVAAISKGGGNTYYADSVKGRFTISRDNAKNTVYLQMNSLKPEDTAVYYCAARRQIIWGQGTQVTVSS”, the “polyreactivity (PSR sort gate)” value is “high polyreactivity”.

With “QVQLVESGGGLVQAGGSLRLSCAASGSIFAANAMGWYRQAPGKERELVAAITRGGRTYYADSVKGRFTISRDNAKNTVYLQMNSLKPEDTAVYYCAAYVFSKREYYRYDYWGQGTQVTVSS”, the “polyreactivity (PSR sort gate)” value is “high polyreactivity”.

With “QVQLVESGGGLVQAGGSLRLSCAASGSIFAAYAKGWYIQAPGKERELVAAISDRGGSTYYADSVKGRFTISRDNSKITVYLQMNSLKPEDTAVYYCATSVFDVRGGPFYYWGQGTQVNVSS”, the “polyreactivity (PSR sort gate)” value is recorded as “high polyreactivity”.

Take “QVQLVESGGGLVQAGGSLRLSCAASGSIFAAYVMGWYRQAPGKERELVAAISYSGGGTYYADSVKGRFTISRDNAKNTVYLQMNSLKPEDTAVYYCAADFGVFKSARYYYWGQGTQVTVSS”: the “polyreactivity (PSR sort gate)” value is “low polyreactivity”.

As to “QVQLVESGGGLVQAGGSLRLSCAASGSIFADYTMGWYRQAPGKERELVAAITSGGSTYYADSVKGRFTISRDNAKNTVYLQMNSLKPEDTAVYYCAAYYGGRGYWGQGTQVTVSS”, the “polyreactivity (PSR sort gate)” value was “low polyreactivity”.

For the sequence “QVQLVESGGGLVQAGGSLRLSCAASGSIFAENAMGCYRQAPGKERELVAAITRSGGSTYYADSVKGRFTISRDNAKNTVYLQMNSLKPEDTAVYYCAAREIASDDWGPDDYWGQGTQVTVSS”, the “polyreactivity (PSR sort gate)” value is reported as “low polyreactivity”.

In the case of “QVQLVESGGGLVQAGGSLRLSCAASGSIFAEYAMGWYRQAPGKERELVAAINGGGSTYYADSVKGRFTISRDNAKNTVYLEMNSLKPEDTAVYYCAAEKYTSWYSFWGYLYDYWGQGTQVTVSS”, the “polyreactivity (PSR sort gate)” value is on record as “high polyreactivity”.

On to “QVQLVESGGGLVQAGGSLRLSCAASGSIFAFYAMGLYRQAPGKERELVAAITASGGRTYYADSVKGRFTISRDIAKNTVYLQMNSLKPEDTAVYYCAAERQTIYIGLYGYPGWSQYNYWGQGTQVTVSS”, for which the “polyreactivity (PSR sort gate)” value is given as “low polyreactivity”.

Consider “QVQLVESGGGLVQAGGSLRLSCAASGSIFAFYAMGRYRQAPGKERELVAAISYNGGSTYYADSVKGRFTISRDNAKNTVYLQMNSLKAEDTAVYYCAAYHFRAPSEYDYWGQGTQVTVSS”, for which the “polyreactivity (PSR sort gate)” value was “low polyreactivity”.

Consider “QVQLVESGGGLVQAGGSLRLSCAASGSIFAFYVMGWYRQAPGKERELVAAINRGGTNTYYADSVKGRFTISRDNGKNTVYLQMNSLKPEDTAVYYCAAQRYGGMDYWGQGTQVTVSS”, for which the “polyreactivity (PSR sort gate)” value is “high polyreactivity”.

“QVQLVESGGGLVQAGGSLRLSCAASGSIFAGNAMGWYCHAPGKERELVAAIRYGGTSTYYADSVKGRFTISRDNAKNTVYLQMNSLIPEDTAVYYCAATDWWGYYYWGQGTQVTVSS”: the “polyreactivity (PSR sort gate)” value is on record as “high polyreactivity”.

Regarding “QVQLVESGGGLVQAGGSLRLSCAASGSIFAGNAMGWYRQAPGKERELVAAISRRGGSTYYADSVKGRFTISRDNAKNTVYLQMNSLKPEDTAVYYCNALLRYAYHAAYGYWGQGPQVTVSS”, the “polyreactivity (PSR sort gate)” value is given as “high polyreactivity”.

Turning to “QVQLVESGGGLVQAGGSLRLSCAASGSIFAGYAMGWYRKAPGKERELVAVISSTGSTYYADSVKGRFTISRDNAKNTVYLQMNSLKTEDTAVYYCNAYRYWSPGYDYWGQGTQVTVSS”, the “polyreactivity (PSR sort gate)” value is listed as “low polyreactivity”.

In the case of “QVQLVESGGGLVQAGGSLRLSCAASGSIFAGYAMGWYRPAPGKERELVAAINWTGDSTYYADSVKGRFTISRDNAKNTVYLQMNSLKPEDTAVYYCAAIRRQKGLWDYYYWGQGTQVTVSS”, the “polyreactivity (PSR sort gate)” value is “low polyreactivity”.

Turning to “QVQLVESGGGLVQAGGSLRLSCAASGSIFAGYAMGWYRQAPGKERELVAAISSSGSRTYYADSVKGRFTISRDNAKNTVYLHMNSLKPEDTAVYYCATQSWVRYGQPEFDYWGQGTQVTVSS”, the “polyreactivity (PSR sort gate)” value was “high polyreactivity”.

Turning to “QVQLVESGGGLVQAGGSLRLSCAASGSIFAGYAMGWYRQAPGKERELVAAITSSGGSTYYADSVKGRFTISRDNAKNTVYLQMTSLKPEDTAVYYCAKDKLILYRVGSDYWGQGTQVTVSS”, the “polyreactivity (PSR sort gate)” value is on record as “low polyreactivity”.

With “QVQLVESGGGLVQAGGSLRLSCAASGSIFAHYAMGWYRQAPGKERELVAAISWGGGRTYYADSVKGRFTISRDNAKNTVYLQMNSLKPEDTAVYYCAARAANKSNYWGQGTQVTVSS”, the “polyreactivity (PSR sort gate)” value is given as “low polyreactivity”.

“QVQLVESGGGLVQAGGSLRLSCAASGSIFAINAMGWYRQAPGKERELVAAIRSGGRTYSADSEKGRFTISRDNAKITVYLQMNSLKPEDTAVYYCTDGGKWIGSDYWGQGTQVTVSS”: the “polyreactivity (PSR sort gate)” value is recorded as “high polyreactivity”.

With “QVQLVESGGGLVQAGGSLRLSCAASGSIFAINAMGWYRQAPGKERELVAGITSGGSTYYADSVKGRFTISRDNAKNTVYLQMNSLKPEDTAVYYCAVQVVRSWLVTYYYWGQGTQVTVSS”, the “polyreactivity (PSR sort gate)” value was “high polyreactivity”.

Regarding “QVQLVESGGGLVQAGGSLRLSCAASGSIFAIYTMGWYRQAPGKVRELVAGITKSGGNTYYADSVKGRFTISRDNAKNTVYLQMNSLKPEDTSVYYCAASQYEYYDGWYRYDYWGQGTQVTVSS”, the “polyreactivity (PSR sort gate)” value was “high polyreactivity”.

Regarding “QVQLVESGGGLVQAGGSLRLSCAASGSIFAKYAMGWYRQAPGKERELVAAITSSGDSTNYADSVKGRFTISRDNAKNTVYLQMNSLKPEDTAVYYCAADDQYGYVYYAFWGYDYWGQGTQVTVSS”, the “polyreactivity (PSR sort gate)” value was “low polyreactivity”.

“QVQLVESGGGLVQAGGSLRLSCAASGSIFAKYPMGWYRQAPGKERELVAAISSGGSTYYADSVKGRFTISRDNAKNTVYLQMNSLKPEDTAVYYCNKPYGKETRYTFNVWYEYNYWGQGTQVTVSS”: the “polyreactivity (PSR sort gate)” value is reported as “low polyreactivity”.

With “QVQLVESGGGLVQAGGSLRLSCAASGSIFANNAMGWYRQAPGKERELVAAIDWSAASTYYADSVKGRFTISRDNAKNTVYLQMNSLKPEDTAVYYCNARALGGGHIGFNHYVYGFGYWGQGTQVTVSS”, the “polyreactivity (PSR sort gate)” value is listed as “low polyreactivity”.

Regarding “QVQLVESGGGLVQAGGSLRLSCAASGSIFARNAMGWYRQAPGTERELVASITWSGASTYYADSVKGRFTMSRDNATNTVSLQLNSLKPDDTAVYYCAATAQKLSLDYSSYEYWGQGTQVTVSS”, the “polyreactivity (PSR sort gate)” value is recorded as “low polyreactivity”.

Turning to “QVQLVESGGGLVQAGGSLRLSCAASGSIFARYAIGWYRQAPGKERELVAAISSDGSTYYADSVKGRFTISRDNAKNTVYLQMNSLKPEDTAVYYCAARAFYYAGDWYGYWGQGTQVTVSS”, the “polyreactivity (PSR sort gate)” value is on record as “high polyreactivity”.

On to “QVQLVESGGGLVQAGGSLRLSCAASGSIFARYTMGWYRQAPGKERELVASITWRTGSTYYADSVKGRFTISRDNAKNTVYLQMNSLKPEDTAVYYCNKAYTITQYGWIPLGYWGQGTQVTVSS”, for which the “polyreactivity (PSR sort gate)” value is “high polyreactivity”.

With “QVQLVESGGGLVQAGGSLRLSCAASGSIFASNALGWYRQAPGKERELVAAIDTSGGSTYYADSVKGRFTISRDNAKNTVYLQMNSLKPEDTAVYYCNTDWRDEYYPRYRASKFDYWGQGTQVTVSS”, the “polyreactivity (PSR sort gate)” value was “low polyreactivity”.

For the sequence “QVQLVESGGGLVQAGGSLRLSCAASGSIFASNAMGWYRQAPGKDTELVAAITYSGGSTYYADSVKGRFTISRDNAKKTVDLQMNSLKPEDTAVYYCAADVSVPQRYDYWGQGTQVTVSS”, the “polyreactivity (PSR sort gate)” value is “low polyreactivity”.

Turning to “QVQLVESGGGLVQAGGSLRLSCAASGSIFASNAMGWYRQAPGKEREFVAAITWRTDRTHYADSVKGRFTISRDNAKNTVYLQMNSLKPEDTAVYYCAADTWFYRFYYWGQGTQVTVSS”, the “polyreactivity (PSR sort gate)” value was “high polyreactivity”.

For “QVQLVESGGGLVQAGGSLRLSCAASGSIFASNAMGWYRQAPGKERELVAAINSGDSTNYADSVKGRFTISRDNAKNTVYLQMNSLKPEDTAVYFCARGLEERYDYWGQGTQVTVSS”, the “polyreactivity (PSR sort gate)” value was “low polyreactivity”.

In the case of “QVQLVESGGGLVQAGGSLRLSCAASGSIFASYAMGWYRQAPGKERELVAAIRSSGGRTYYADSVKGRFTISRDNAKYTVYLQMYSLKPEDTAVYYCNDRRPGYRPYGYDYWGQGTQVTVSS”, the “polyreactivity (PSR sort gate)” value is on record as “high polyreactivity”.

Regarding “QVQLVESGGGLVQAGGSLRLSCAASGSIFASYAMGWYRQAPGKERELVAAITTSGGRTYYADSVKGRFTISRDNAKNTVYLQMNSLKPEDTAVYYCARRPRGGRYAYYSWGQGTQVTVSS”, the “polyreactivity (PSR sort gate)” value is “high polyreactivity”.

Turning to “QVQLVESGGGLVQAGGSLRLSCAASGSIFASYAMGWYRQAPGKERELVATITQSGGRTYYADSVKGRFTISRDNAKNTVYLQMNSLKPEDTAVYYCARRYWGGGYRMGYWGQGTQVTVSS”, the “polyreactivity (PSR sort gate)” value is reported as “high polyreactivity”.

Take “QVQLVESGGGLVQAGGSLRLSCAASGSIFASYVMGWYRQAPGKERELVAAITSRGTSTYYADSVKGRFTISRDNAKNTVYLQMNSLKPEDTAVYYCAARLYGSAPQHEYWGQGTQVTVSS”: the “polyreactivity (PSR sort gate)” value is listed as “low polyreactivity”.

For the sequence “QVQLVESGGGLVQAGGSLRLSCAASGSIFAVNAMGWYRPAPGKERELVAAITSGGITYYADSVKGRFTISRDNAKNTVYLQMNSLKPEDTAVYYCATVFSVQGWYFGMNYWGQGTQVTVSS”, the “polyreactivity (PSR sort gate)” value is on record as “low polyreactivity”.

For the sequence “QVQLVESGGGLVQAGGSLRLSCAASGSIFAVNAMGWYRQAPGKERELVAAIDWSDGITYYADSVKGRFTISRDNAKNTVYLQMNSLKPEDTAVYYCAADATAYGWYVEQFSFYDNDYWGQGTQVTVSS”, the “polyreactivity (PSR sort gate)” value is recorded as “high polyreactivity”.
